The target in assay [1] is T1, MAGE-A1 target antigen peptide … presented by HLA-A*02:01 on cells (human). Briefly: cell-based or functional assay.
Assay [2] concerns the target T1, MAGE-A1 target antigen peptide … …. Description: cell-based or functional assay. The source holds these as a separate data set.
The target of assay [3] is MAGE-A1 target antigen peptide … presented by HLA-A*02:01 on cells (human). Briefly: cell-based or functional assay. The source holds these as a separate data set.
Assay [4] deals with T2, MAGE-A1 peptide on HLA-A*02:01 (human).
T2 peptide: KVLEYVIKV
Description: JKR9 reporter + peptide-loaded T2, 16 h; full-length, on cells.

Assay [5] has as its target MAGE-A1 Dextramer (human). Briefly: MAGE-A1 Dextramer gradient staining (MFI) of cells expressing the TCR, flow cytometry. On the technique in general: In flow cytometry, cells or beads pass a laser one at a time.
Assay [6] addresses MAGE-A1 Dextramer (human). Description: KD-SPR estimated from Dextramer staining MFI by the linear formula of Figure 6; not measured by SPR.
Assay [7] deals with T2, MAGE-A1 peptide on HLA-A*02:01. Description: MAGE-A1 Dextramer gradient on transduced JKR9; unit inferred; full-length, on cells.
For assay [8] the target is unchanged. Briefly: KD-SPR estimated from Dextramer MFI by the formula calibrated on gp100 TCRs, not measured; unit inferred; full-length, on cells.

Read-outs that look alike come from different tables or passages of the source.

B1: ht27WT (TCR, V domains shown)
V domain 1: RGEDVEQSLFLSVREGDSSVINCTYTDSSSTYLYWYKQEPGAGLQLLTYIFSNMDMKQDQRLTVLLNKKDKHLSLRIADTQTGDSAIYFCAGSGGGTDKLIFGTGTRLQVFP
V domain 2: GAVVSQHPSWVICKSGTSVKIECRSLDFQATTMFWYRQFPKQSLMLMATSNEGSKATYEQGVEKDKFLINHASLTLSTLTVTSAHPEDSSFYICSAREPGQGPYEQYFGPGTRLTVTE
For B1, the “EC50 Value (M), JKR9 reporter activation by peptide-loaded T2 cells” value in assay [1] worked out at 1.67e-05 M; in assay [2], 2.31e-06 M.

B2: A1A2-M01-625 (TCR, V domains shown)
Valpha: GEDVEQSLFLSVREGDSSVINCTYTDSSMTYLYWYKQEPGAGLQLLTYIFAFESMKQDQRLTVLLNKKDKHLSLRIADTQTGDSAIYFCAGSGGGTDKLIFGTGTRLQVFP
Vbeta: GAVVSQHPSWVICKSGTSVKIECRSLDFEATTMFWYRQFPKQSLMLMATTDYGSKATYEQGVEKDKFLINHASLTLSTLTVTSAHPEDSSFYICSAREPGQGPWEQYFGPGTRLTVT
In general, EC50 refers to the concentration at which the effect is half-maximal. The low end stands for an effect from little substance, the high end for a need for much substance. The Kd is the free concentration of one partner at which half of the binding sites on the other are occupied at equilibrium, for simple one-to-one binding. Molecule B2 had an EC50 Value (M), JKR9 reporter activation by peptide-loaded T2 cells in assay [3] of 3.52e-08 M. Moreover, the EC50 of peptide in assay [4] was 35.1 nM. In addition, the EC50 in assay [5] is 0.0852 nM. Further, the Kd is 0.0222 nM in assay [6] and around 0.0222 nM in assay [8]. In assay [7], the “EC50 of Dextramer staining” value worked out at 0.0852 nM.

The record behind these values is patent publication EP4534554A1 (Corregene Biotechnology Co., Ltd., dated 2025).
